Measurements as given in PMC5297931.

Target: Haemophilus surface fibril (Hsf) putative domain 1 (PD1) (H. influenzae)
Assay: SEC-MALLS; Superdex 200 5/150, buffer C (50 mM Tris, 150 mM NaCl pH 8.0), 0.2 ml/min; LS, dRI and UV detectors; IMAC- and SEC-purified HsfPD1

“Haemophilus surface fibril (Hsf) putative domain 1 (PD1) (domain or fragment)” was tested. Which stoichiometry N did it give?
Its stoichiometry N is 3.
